The source of these data is paper PMC5552228, “Mapping the contact surfaces in the Lamin A:AIMP3 complex by hydrogen/deuterium exchange FT-ICR mass spectrometry” (PLoS ONE, 2017).

The target of this assay is T1, His-Tev-AIMP3 (aminoacyl-tRNA synthetases-interacting multifunctional protein 3) (human, UniProt O43324 1-174).
T1 construct: also called AIMP3/p18; MSC p18; source: E. coli BL21 (DE3), pET28a, purified (Ni-HiTrap, desalting column); not shown: His6-Tev (6-his tag and Tobacco Etch Virus protease cutting site, aa1-22 of the construct), N-terminal, kept
T1 sequence (looked up): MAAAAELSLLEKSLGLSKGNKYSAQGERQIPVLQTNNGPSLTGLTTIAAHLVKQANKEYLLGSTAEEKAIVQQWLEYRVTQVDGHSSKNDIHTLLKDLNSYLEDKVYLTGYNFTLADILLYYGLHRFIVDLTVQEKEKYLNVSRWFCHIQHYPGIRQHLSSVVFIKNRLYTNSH
The assay is described as follows: HDX-MS; AIMP3 and LmnA mixed in 1:1 ratio, 40 uM stock, 20 mM Hepes, 150 mM NaCl, pH 7.5, diluted into D2O; 0.5-240 min at 0.4 °C; protease type XIII digestion; LC-ESI 14.5 T FT-ICR MS; free against complexed protein. Particulars: both partners purified.

B1: His-Strep-TrxA-LmnA (C-terminal part of Lamin A, 567-646) (domain or fragment, UniProt P02545 567-646, looked up)
chain: GSHCSSSGDPAEYNLRSRTVLCGTCGQPADKASASGSGAQVGGPISSGSSASSVTVTRSYRSVGGSGGGSFGDNLVTRSY
notes: C-terminal part of mature Lamin A, residues 567-646 by the methods (the results say aa567-647, 80 aa); ends in NLVTRSY (203-209 of the construct); also called LmnA C-terminus; LmnA (aa567-647); source: E. coli BL21 (DE3), pET28a, purified (as for AIMP3: Ni-HiTrap, desalting column); not shown: His, N-terminal, kept; Strep, N-terminal, kept; TrxA (thioredoxin), N-terminal, kept
Turning to B1, the binding result is on record as “binds”.
